Where a name gives a salt, the structure may show the parent alone. No end group written: not given here.

The values below come from patent US10905653B2, “Sequentially decomposable polypeptide-based nanocarriers with protective shell and preparation thereof” (National Tsing Hua University, priority 2016, dated 2021).

Data set [1] concerns human breast adenocarcinoma cells MDA-MB-231. Put plainly: Cell viability assay (MTS assay), anti-tumor activity. Format: cell-based. As to conditions: 10 μg/ml DOX equivalent, 24 hours treatment. The procedure:
The anti-tumor activity of the drug-loaded polypeptide-based nanocarrier with protective shell of the present invention was evaluated in this example by cell viability assay (MTS assay) on human breast adenocarcinoma cells MDA-MB-231 cells. The cells were seeded in a 96-well plate (5×10^3 cells/well) and cultured in L-15 medium supplemented with 10% FBS and 1% penicillin and streptomycin at 37° C. for 1 day. Next, the medium was removed, and cells were treated with 100 μl L-15 medium containing DOX.HCl, the DOX-loaded polypeptide-based nanocarriers with protective shell of calcium phosphate and with LyP-1 peptide (M-DOX NP w/LyP-1), or the DOX-loaded polypeptide-based nanocarriers with protective shell of calcium phosphate and without LyP-1 peptide (M-DOX NP w/o LyP-1) at concentrations equivalent to 10 μg/ml DOX for 24 hours. The cells were rinsed with PBS 2 times and incubated with L-15 medium supplemented with 10% FBS and 1% penicillin and streptomycin at 37° C. for 24 hours, 48 hours, or 72 hours. To carry out the cell viability assay, the medium was first discarded from the 96-well plate, 10 μl MTS solution and 90 μl L-15 medium were added for incubation at 37° C. for 2.5 hours, and the solution was transferred to a new 96-well plate for measurement of light absorption at 490 nm. The assay was repeated 3 times.
For orientation: Tetrazolium dyes change colour on reduction, which living cells bring about.

Data set [2] can be described thus: TNBS assay, acidic hydrolysis of the cis-aconityl linkage. It is filed as physicochemical. The procedure:
TNBS (2,4,6-trinitrobenzene sulfonic acid) assay was performed in this example to analyze the acidic hydrolysis of the cis-aconityl linkage in the polypeptide-based long chain copolymer in conditions of different pH values. TNBS reacts with primary amines to yield a soluble orange colored product. Since PEG3400 released from hydrolyzed PEG3400-aconitic acid carries a free amine group at the end, the hydrolysis level of PEG3400-aconitic acid at different pH values is determined based on the amount of the colored product formed in TNBS assay. PEG3400-aconitic acid (2 mg/ml) was first dissolved in deionized water with a pH value of 5.0, 6.5, or 7.4 for hydrolysis. The hydrolysis reactions of 3 hours, 6 hours, 12 hours, and 24 fours were stopped by adjusting the pH value of the PEG3400-aconitic acid hydrolysate solutions to 8.2 and freezing. Sodium bicarbonate was added to the abovementioned hydrolysate solutions to a final concentration of 0.1 M (pH 8.2), and a 5% w/v TNBS solution was then added for reaction at 37° C. for 1 hour. The reaction was terminated using 1.0 N HCl, so that the volume ratio of the PEG3400-aconitic acid hydrolysate solution, the TNBS solution, and HCl was 4:2:1. Absorbance of the reaction-terminated solutions at 335 nm was measured with an enzyme-linked immunosorbent assay (ELISA) reader (Victor X3 2030 Multilabel Reader, PerkinElmer, Waltham, Mass., USA). According to the standard curve obtained from amine samples with known concentration, free amine group of PEG3400 in the reaction-terminated solutions was quantified and the hydrolysis level of PEG3400-aconitic acid at each pH was calculated.

Regarding `COc1cccc2c1C(=O)c1c(O)c3c(c(O)c1C2=O)C[C@@](O)(C(=O)CO)C[C@@H]3O[C@H]1C[C@H](N)[C@H](O)[C@H](C)O1` [DOX.HCl, doxorubicin hydrochloride], the “viability of the breast adenocarcinoma cells” value is given as 5.4% in data set [1] (kept incubated for 72 hours) and 14.3% in data set [1] (first time point, post-incubation time not given).

Consider “PEG3400-aconityl linkage-polypeptide E15-H10-L10 (EEEEEEEEEEEEEEEHHHHHHHHHHLLLLLLLLLL; also: PEG3400 via aconityl linkage, site not given here) [polypeptide-based long chain copolymer]”, for which the “breakage of the cis-aconityl linkage” value in data set [2] (pH 5, within 12 hours) is on record as 43.33%; in data set [2] (pH 6.5, within 12 hours), 13.28%; in data set [2] (pH 6.5, within 24 hours) it was 21%; in data set [2] (pH 7.4, within 12 hours) it was “about 1.97%”.
